How the values were obtained:
Assay in all cases: two-hybrid library CCNG1;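 note: natural log of median RNA to DNA barcode read ratio; higher means stronger binding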
4H363-bH = biological target: T1, 4H363-bH
T1 chain: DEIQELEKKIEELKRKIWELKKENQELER

4H3907-bH = biological target: T2, 4H3907-bH
T2 chain: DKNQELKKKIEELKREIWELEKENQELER

4H3961-bH = biological target: T3, 4H3961-bH
T3 chain: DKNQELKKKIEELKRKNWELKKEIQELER

4H470-bH = biological target: T4, 4H470-bH
T4 chain: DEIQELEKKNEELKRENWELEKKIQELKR

4H342-bN = biological target: T5, 4H342-bN
T5 chain: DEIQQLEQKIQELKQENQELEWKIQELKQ

4H3632-bN = biological target: T6, 4H3632-bN
T6 chain: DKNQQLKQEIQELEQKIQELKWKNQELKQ

4H4001-bN = biological target: T7, 4H4001-bN
T7 chain: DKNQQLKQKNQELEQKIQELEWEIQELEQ

4H48-bN = biological target: T8, 4H48-bN
T8 chain: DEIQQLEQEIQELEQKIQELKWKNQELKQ

4H491-bN = biological target: T9, 4H491-bN
T9 chain: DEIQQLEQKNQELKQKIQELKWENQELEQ

4H496-bN = biological target: T10, 4H496-bN
T10 chain: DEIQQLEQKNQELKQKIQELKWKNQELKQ

4H48-bH = biological target: T11, 4H48-bH
T11 chain: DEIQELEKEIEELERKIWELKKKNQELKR

4H491-bH = biological target: T12, 4H491-bH
T12 chain: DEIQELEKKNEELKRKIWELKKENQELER

O6-bP = biological target: T13, O6-bP
T13 chain: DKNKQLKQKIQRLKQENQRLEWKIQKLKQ

B1: 4H363-bH (peptide)
chain: DEIQELEKKIEELKRKIWELKKENQELER
interaction score (4H363-bH): 1.36
interaction score (4H3907-bH): 1.26
interaction score (4H3961-bH): 0.532
interaction score (4H470-bH): 0.465

B2: 4H342-bN (peptide)
chain: DEIQQLEQKIQELKQENQELEWKIQELKQ
interaction score (4H342-bN): 1.33
interaction score (4H3632-bN): 0.807
interaction score (4H4001-bN): -0.0564
interaction score (4H48-bN): -1.99
interaction score (4H491-bN): 1.47
interaction score (4H496-bN): 1.56

B3: 4H48-bH (peptide)
chain: DEIQELEKEIEELERKIWELKKKNQELKR
interaction score (4H48-bH): 1.21
interaction score (4H491-bH): 2.29
interaction score (O6-bP): -0.138

Reference: PMC10397247
